# Reference: patent US20150246136A1 (Bayer, published 2015)
# Where “and” joins values, the source holds several entries; their conditions need not be identical. Equal values may be shown once.
# B1: Example 56, conjugate of anti-mesothelin antibody MF-Ta (antibody, human IgG1, lambda, V domains shown)
# VH: QVELVQSGAEVKKPGESLKISCKGSGYSFTSYWIGWVRQAPGKGLEWMGIIDPGDSRTRYSPSFQGQVTISADKSISTAYLQWSSLKASDTAMYYCARGQLYGGTYMDGWGQGTLVTVSS
# VL: DIALTQPASVSGSPGQSITISCTGTSSDIGGYNSVSWYQQHPGKAPKLMIYGVNNRPSGVSNRFSGSKSGNTASLTISGLQAEDEADYYCSSYDIESATPVFGGGTKLTVLG
# modifications: toxophore-linker on Cys sulfur, sites not given
# B2: Example 57, conjugate of anti-mesothelin antibody MF-Ta (antibody, human IgG1, lambda, V domains shown)
# VH: B1 VH
# VL: B1 VL
# modifications: toxophore-linker on Cys sulfur, sites not given
# B3: Example 58, conjugate of anti-mesothelin antibody MF-Ta (antibody, human IgG1, lambda, V domains shown)
# VH: B1 VH
# VL: B1 VL
# modifications: toxophore-linker on Lys NH, sites not given
# B4: Example 59, conjugate of anti-mesothelin antibody MF-Ta (antibody, human IgG1, lambda, V domains shown)
# VH: B1 VH
# VL: B1 VL
# modifications: toxophore-linker on Lys NH, sites not given
# B5: Example 60, conjugate of anti-mesothelin antibody MF-Ta (antibody, human IgG1, lambda, V domains shown)
# VH: B1 VH
# VL: B1 VL
# modifications: toxophore-linker on Cys sulfur, sites not given
# B6: Example 61, conjugate of anti-mesothelin antibody MF-Ta (antibody, human IgG1, lambda, V domains shown)
# VH: B1 VH
# VL: B1 VL
# modifications: toxophore-linker on Cys sulfur, sites not given
# B7: Example 62, conjugate of anti-mesothelin antibody MF-Ta (antibody, human IgG1, lambda, V domains shown)
# VH: B1 VH
# VL: B1 VL
# modifications: toxophore-linker on Cys sulfur, sites not given
# B8: Example 63, conjugate of anti-mesothelin antibody MF-Ta (antibody, human IgG1, lambda, V domains shown)
# VH: B1 VH
# VL: B1 VL
# modifications: toxophore-linker on Cys sulfur, sites not given
# B9: Example 64, conjugate of anti-mesothelin antibody MF-Ta (antibody, human IgG1, lambda, V domains shown)
# VH: B1 VH
# VL: B1 VL
# modifications: toxophore-linker on Cys sulfur, sites not given
# B10: Example 65, conjugate of anti-mesothelin antibody MF-Ta (antibody, human IgG1, lambda, V domains shown)
# VH: B1 VH
# VL: B1 VL
# modifications: toxophore-linker on Cys sulfur, sites not given
# B11: Example 66, conjugate of anti-mesothelin antibody MF-Ta (antibody, human IgG1, lambda, V domains shown)
# VH: B1 VH
# VL: B1 VL
# modifications: toxophore-linker on Cys sulfur, sites not given
# B12: Example 67, conjugate of anti-mesothelin antibody MF-Ta (antibody, human IgG1, lambda, V domains shown)
# VH: B1 VH
# VL: B1 VL
# modifications: toxophore-linker on Cys sulfur, sites not given
# B13: Example 68, conjugate of anti-mesothelin antibody MF-Ta (antibody, human IgG1, lambda, V domains shown)
# VH: B1 VH
# VL: B1 VL
# modifications: toxophore-linker on Cys sulfur, sites not given
# B14: Example 69, conjugate of anti-mesothelin antibody MF-Ta (antibody, human IgG1, lambda, V domains shown)
# VH: B1 VH
# VL: B1 VL
# modifications: toxophore-linker on Cys sulfur, sites not given
# B15: Example 70, conjugate of anti-mesothelin antibody MF-Ta (antibody, human IgG1, lambda, V domains shown)
# VH: B1 VH
# VL: B1 VL
# modifications: toxophore-linker on Cys sulfur, sites not given
# B16: Example 71, conjugate of anti-mesothelin antibody MF-Ta (antibody, human IgG1, lambda, V domains shown)
# VH: B1 VH
# VL: B1 VL
# modifications: toxophore-linker on Cys sulfur, sites not given
# B17: Example 72, conjugate of anti-mesothelin antibody MF-Ta (antibody, human IgG1, lambda, V domains shown)
# VH: B1 VH
# VL: B1 VL
# modifications: toxophore-linker on Cys sulfur, sites not given
# Biological target: Mesothelin (SwissProt reference Q13421-3) (Homo sapiens, UniProt Q13421 37-622)
# Experiment: cell-based or functional assay
row,"IC50 (nM), HT29 meso+ cells, MTT proliferation assay",Binder
1,0.17 nM,B1
2,0.4 nM,B2
3,5 nM,B3
4,1 nM,B4
5,0.06 nM and 0.16 nM,B5
6,0.019 nM,B6
7,20 nM,B7
8,0.03 nM,B8
9,0.11 nM,B9
10,0.14 nM,B10
11,1.5 nM,B11
12,0.015 nM,B12
13,2 nM,B13
14,0.07 nM,B14
15,0.02 nM,B15
16,0.6 nM,B16
17,0.05 nM,B17
